Reference: publication PMC8071527, “Substrate Specificity of Chimeric Enzymes Formed by Interchange of the Catalytic and Specificity Domains of the 5′-Nucleotidase UshA and the 3′-Nucleotidase CpdB” (Molecules, 2021)

Key:
Experiment in all cases: phosphate release, colorimetric, saturation kinetics
Format in all cases: biochemical, Escherichia coli
Settings in all cases: Mn2+; alkaline phosphatase as auxiliary enzyme
[1] = test system: O=[N+]([O-])c1ccc(OP(=O)(O)Oc2ccc([N+](=O)[O-])cc2)cc1
From the text: (§1) phosphate release, colorimetric, saturation kinetics on CpdB_Ndom–UshA_Cdom

[2] = test system: C[N+](C)(C)CCOP(=O)(O)OP(=O)([O-])OC[C@H]1O[C@@H](n2ccc(N)nc2=O)[C@H](O)[C@@H]1O
From the text: as §1

[3] = test system: O=c1ccn([C@@H]2O[C@H](CO[P@@](=O)(O)O[P@@](=O)(O)O[C@H]3O[C@H](CO)[C@@H](O)[C@H](O)[C@H]3O)[C@@H](O)[C@H]2O)c(=O)[nH]1
From the text: as §1

[4] = test system: Nc1ncnc2c1ncn2[C@@H]1O[C@H](CO)[C@H]2OP(=O)(O)O[C@H]21
From the text: as §1

[5] = test system: O=[N+]([O-])c1ccc(OP(=O)(O)Oc2ccc([N+](=O)[O-])cc2)cc1; remark: listed apart in the source
From the text: (§2) phosphate release, colorimetric, saturation kinetics on UshA_Ndom–CpdB_Cdom

[6] = test system: C[N+](C)(C)CCOP(=O)(O)OP(=O)([O-])OC[C@H]1O[C@@H](n2ccc(N)nc2=O)[C@H](O)[C@@H]1O; remark: listed apart in the source
From the text: as §2

[7] = test system: O=c1ccn([C@@H]2O[C@H](CO[P@@](=O)(O)O[P@@](=O)(O)O[C@H]3O[C@H](CO)[C@@H](O)[C@H](O)[C@H]3O)[C@@H](O)[C@H]2O)c(=O)[nH]1; remark: listed apart in the source
From the text: as §2

[8] = test system: Nc1ncnc2c1ncn2[C@@H]1O[C@H](CO)[C@H]2OP(=O)(O)O[C@H]21; remark: listed apart in the source
From the text: as §2

**Q.** CpdB_Ndom–UshA_Cdom (Escherichia coli) was tested. Which Km [1] did it give?
**A.** 1400 ± 60 µM

**Q.** And the kcat [1]?
**A.** 208 ± 77 s⁻¹

**Q.** What about the kcat/Km [1] of the same substance?
**A.** 150000 ± 55000 M⁻¹ s⁻¹

**Q.** And the Km [2]?
**A.** 3900 ± 600 µM

**Q.** What about the kcat [2] of the same substance?
**A.** 11 ± 3 s⁻¹

**Q.** What about the kcat/Km [2] of the same substance?
**A.** 2700 ± 300 M⁻¹ s⁻¹

**Q.** What about the Km [3] of the same substance?
**A.** 5900 ± 1900 µM

**Q.** And the kcat [3]?
**A.** 0.2 ± 0.1 s⁻¹

**Q.** What about the kcat/Km [3] of the same substance?
**A.** 40 ± 8 M⁻¹ s⁻¹

**Q.** What about the Km [4] of the same substance?
**A.** 370 ± 40 µM

**Q.** And the kcat [4]?
**A.** 117 ± 24 s⁻¹

**Q.** What about the kcat/Km [4] of the same substance?
**A.** 320000 ± 80000 M⁻¹ s⁻¹

**Q.** What does the source list for UshA_Ndom–CpdB_Cdom (Escherichia coli)?
**A.** Km [5]: 670 ± 120 µM; kcat [5]: 45 ± 3 s⁻¹; kcat/Km [5]: 68000 ± 13000 M⁻¹ s⁻¹; Km [6]: 1400 ± 400 µM; kcat [6]: 0.3 ± 0.01 s⁻¹; kcat/Km [6]: 210 ± 60 M⁻¹ s⁻¹; Km [7]: 5000 ± 1700 µM; kcat [7]: 0.1 ± 0.01 s⁻¹; kcat/Km [7]: 20 ± 10 M⁻¹ s⁻¹; Km [8]: 1100 ± 350 µM; kcat [8]: 3.6 ± 1 s⁻¹; kcat/Km [8]: 3400 ± 1300 M⁻¹ s⁻¹
